This note sets out measurements from patent publication US20260209316A1 (US Dept. of Health and Human Services, published 2026).

To fix the notation:
B1: Fab generated from 523S (Fab, V domains shown)
VH: QVQLVQSGAELKKPGASVKVSCKASGYTFSDHYVHWVRQAPGQGLEWMGRINPNSGGTNYAQRFLGRVTMTRDASISTAYLDLSSLRSDDTAVYYCARSSSSWSGHYYYYMDVWGKGTTVTVSS
VL: QSVLTQPPSVSAAPGQRVTISCSGSTSNIASNFVSWYQQLPGTAPKLLIYDNHKRPSGIPDRFSGSKSGTSATLGITGLQTGDEADYYCGTWDSSLSAGVFGGGTKVTVL
notes: also called 523S Fab
B2: Fab generated from 573S (Fab, V domains shown)
VH: EVQLVESGGGLVKPGGSLRLSCAASGFTFSSYTMNWVRQAPGKGLEWVSCIRSSSSDKYYADSVKGRFTISRDNTKNSLYLQMNSLRADDTAVYYCARDLGGANNRYYFDYGMDVWGQGTTVTVSS
VL: EIVMTQSPATLSVSPGGRATLSCRASQSVYTNLAWYQQKPGQAPRLLIYDASTRATGIPARFSGSGSGTEFTLTISSLQCEDFAVYYCQHYNNWPLYTFGQGTKLEIK
notes: also called 573S Fab
B3: Fab generated from 335S (Fab, V domains shown)
VH: EVQLVESGGGVVQPGRSLRLSCAASGFSFSNYAMHWVRQAPGKGLEWVAVTWYDGSSKYHADSVKGRFTISRDNSKNTLYLQMNSLRAEDTAVYYCARWGMGIVASPGNVLNYYYFMDVWGQGTTVIVSS
VL: SYELTQPPSVSVSPGQTARITCSGNPLPKKHTYWYQQKPGQAPVLMIYKDSERPSRIPERFSGSSSGTTVTLTISGVQAEDEADYYCQSADSTGIVVFGGGTKLTVL
notes: also called 335S Fab
B4: Fab generated from 377S (Fab, V domains shown)
VH: QVQLVQSGAEVKKPGSSVKVSCKASGGTFSNYAINWVRQAPGQGLEWMGRTIPFLGLTNYAENFQARVTITADKSTGTSYMQLSSLRSEDTAVYFCAKAATSGWSPFDNWGQGTLVTVSS
VL: EIVLTQSPGTLSLSPGERATLSCRASQSISSSYFGWYQQKPGQAPRLLIYGASRRAAGIPDRFSCSGSGTDFTLTISRLEPEDFGVYYCQQYGSSPTFGQGTKVEIK
B5: Fab generated from 315S (Fab, V domains shown)
VH: EVQLVESGGGVVQPGRSLRLSCAASGFTFKTYTMHWVRQAPGKGLEWVAVITDDGVNKKYADSVKGRFTISRDNSKNTLYLQMNSLRLEDTAVYYCARSVVVLAAYPLDYWGQGTMVTVSS
VL: DIQMTQSPSSLSASVGDRVTITCRASQTISTYLHWYQQRPGKAPKLLIYAASSLQSGVPSRVSGSGSGTDFTLTITSLQPEDFATYYCLQTYSLPLTFGGGTNVEIK
notes: also called 315S Fab
B6: Fab generated from 365S (Fab, V domains shown)
VH: EVQLVESGGGLVQPGGSLRLSCAASGLTFSAYEMNWVRQAPGKGLEWVSHITTSGSAIYYADSVKGRFTISRDNAKNSLHLQMNRLRADDTAVYFCARDSTIVQCSGTSCHVSTYSYMDVWGKGTTVTVSS
VL: EIVLTQSPATLSLSPGERATLSCRASQSVTTYLAWYQHKPGQAPRLLIYDASKRATGIPARFSGSGSGTDFTLTISSLEPEDFAVYHCQQRSSWPPITFGQGTRLEIK
notes: also called 365S Fab
B7: Fab generated from 203S (Fab, V domains shown)
VH: QVQLVQSGAEVKKPGSSVKVSCKASGGTFSSYAISWVRQAPGQGLEWLGRILPALGLANYAQKYQDRVKITADKSTSTAYMELSRLGSEDTAVYYCARDRWVGAARRGQYFDYWGQGTQVTVSS
VL: DIQMTQSPATLSASVGDRVTITCRASQSIGTWLAWYQQKPGKAPKLLIYDASSLESGVPPRFSGSGSETEFTLTISSLQPDDFATYYCHQYKSYSYTFGQGTKLEIK
notes: also called 203S Fab
B8: Fab generated from 382S (Fab, V domains shown)
VH: QVQLVQSGAEVKKPGSSVKVSCKASGGTFSNYGISWVRQAPGQGLEWMGRNIPIIGIANYAQKFQDRVTITADKSTSTVFMELRSLRYEDTAVYYCARDPLAARRGNWFDPWGQGTLVTVSS
VL: B7 VL with A9S, I29V, G30S, T31S, S53T, E55Q, P60S, E68G, H89Q, K92N
notes: also called 382S Fab
B9: Fab generated from 528S (Fab, V domains shown)
VH: EVQLAESGGGVVQPGRSLRLSCAASGFTFNSYGMHWVRQAPGKGLEWVAVIWDDGSKKYYADSVKGRFTISRDNSKNTLFLQMNSLRAEDTAVYYCARETIMFTFGEVIVSSRDNYYMDVWGKGTTVTVSS
VL: EIVLTQSPATLSLSPGERATLSCRASQSVSNYLAWYQQKPGQAPRLLIYDASTRAIGIPARFSGVGSGTDFTLTISSLEPEDFAVYYCQQRSNWPPLTFGGGTKVEIK
notes: also called 528S Fab
B10: Fab generated from 578S (Fab, V domains shown)
VH: EVQLVESGGGVVQPGRSLRLSCAASGFTFSSYELHWVRQAPGKGLEWVAVISYDGSSKYYADSLKGRFTISRDNSKNTLSLQMNSLRAEDTAMYYCVRQSEAYCSDGRCDWRRALDIWGQGTMVTVSP
VL: DIQMTQSPSSLSASVGDRVTITCQASQDIKNYLNWYQQKPGKAPKLLIYDVSKLETGVPSRFSGSGSGTDFSFTISSLQPEDIATYYCQQYDNLPSYTFGQGTKLEIK
notes: also called 578S Fab
B11: Fab generated from 338S (Fab, V domains shown)
VH: EVQLVESGGGVVQPGRSLRLSCAASGFTFSQYGMHWVRQAPGKGLECVAVIWFDGSKKYYGDSVKGRFTISRDNSKNTLYLQMNSLRAEDTAVYFCARESLYYYDSGGHYYERGRIDYWGQGTLVTVSS
VL: DIQMTQSPSSLSASVGDRVTITCRASQDISNFLAWFQQKPGKAPKSLIYAASSLLSGVPSKFSGSGSGTDFTLTISSLQPEDFATYYCQQYNSYPPTFGQGTKLEIK
B12: Fab generated from 285S (Fab, V domains shown)
VH: QVQLVQSGAEVKKPGSSVKVSCKASGGTFSTYAITWVRQAPGQGLEWMGRIIPILRVANYAQKFQGRVTITADSSTSTAYMELSSLRSEDTAVYYCANLLAYCGGDCRSDYWGQGTLVTVSS
VL: EIVLTQSPGTLSLSPGERATLSCRASQSVKNSYLAWYHQKPGQAPRLLIYGASSRATGIPDRFSGSGSGTDFTLTISRLEPEDFAVYYCQQYGSSLWTFGQGTKVDVK
B13: Fab generated from 102S (Fab, V domains shown)
VH: EVQLVESGGGLVQPGGSLRLSCSASGFTFHSYDMNWARQAPGKGLEWVSEISSSGQSKNYADSVRGRFTISRDNAKNSLYLQINSLRSEDTAVYYCARVGFVAKFGSDFSITHGTYYLDYWGQGTLVTVSS
VL: B9 VL with E1Q, I2L, T53N, I56P, I58V, V65S, T72S, Q89L, L97W, G101Q

Where a chain is given by its changes, count along the chain named.

The target in one experiment is T1, full-length Sudan GP (GPFL) (Sudan virus (SUDV), UniProt Q7T9D9 33-650).
T1 construct: also called Sudan GPFL; GP(S)FL
T1 sequence: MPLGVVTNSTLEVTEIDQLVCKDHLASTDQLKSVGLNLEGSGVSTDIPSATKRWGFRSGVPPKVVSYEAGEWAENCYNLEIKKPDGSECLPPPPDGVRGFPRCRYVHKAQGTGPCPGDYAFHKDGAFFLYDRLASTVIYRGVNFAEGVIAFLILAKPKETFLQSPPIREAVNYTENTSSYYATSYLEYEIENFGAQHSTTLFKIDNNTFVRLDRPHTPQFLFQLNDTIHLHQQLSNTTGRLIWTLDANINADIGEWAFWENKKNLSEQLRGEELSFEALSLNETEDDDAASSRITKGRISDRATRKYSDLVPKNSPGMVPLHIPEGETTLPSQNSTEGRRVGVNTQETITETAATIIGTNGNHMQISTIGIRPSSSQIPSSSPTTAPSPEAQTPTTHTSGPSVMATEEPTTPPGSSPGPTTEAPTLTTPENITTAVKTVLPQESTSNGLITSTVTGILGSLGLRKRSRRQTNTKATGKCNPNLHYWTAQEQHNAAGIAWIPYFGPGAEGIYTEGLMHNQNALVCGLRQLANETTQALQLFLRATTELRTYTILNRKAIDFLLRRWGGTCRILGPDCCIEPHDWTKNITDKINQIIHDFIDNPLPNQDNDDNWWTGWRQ
Nature of the experiment: BLI, Fab, pH 5.3. On the technique in general: BLI is a label-free optical method that tracks binding on a fibre tip over time.
For B1, the Kd (in general, the free concentration of one partner at which half of the binding sites on the other are occupied at equilibrium, for simple one-to-one binding) was found to be 1.58 nM; the koff (as a rule, the first-order rate constant of dissociation) amounted to 0.000103 s⁻¹; the kon (in general, a measure of how fast the partners come together) turned out to be 65400 M⁻¹ s⁻¹.
As for B2, the Kd was 9.27 nM, the koff worked out at 0.000105 s⁻¹ and the kon came to 11300 M⁻¹ s⁻¹.

Another experiment has as its target T1, full-length Sudan GP (GPFL). The experiment is described as follows: BLI, Fab, pH 7.4.
Molecule B1 returned a Kd of 1.61 nM, a koff of 0.000148 s⁻¹ and a kon of 91900 M⁻¹ s⁻¹.
For B2, the Kd came out at 24.1 nM, the koff is 0.000252 s⁻¹ and the kon is 10500 M⁻¹ s⁻¹.

For the next experiment the target is unchanged. Nature of the experiment: BLI, Fab, pH 5.3. The source holds these as a separate data set.
Regarding B3, the affinity, expressed as Kd, was 12.6 nM; the koff was 0.000352 s⁻¹; the kon turned out to be 27800 M⁻¹ s⁻¹.
For B4, in that order: 63.7 nM, 0.000571 s⁻¹ and 8970 M⁻¹ s⁻¹.
For B5, in that order: 4.26 nM, 8.93e-05 s⁻¹ and 21000 M⁻¹ s⁻¹.
The corresponding values for B6 are 57.7 nM, 0.00362 s⁻¹ and 62800 M⁻¹ s⁻¹.
Consider B7, for which the Kd came to 118 nM, the koff worked out at 0.00046 s⁻¹ and the kon was 3880 M⁻¹ s⁻¹.
The corresponding values for B8 are 31.3 nM, 0.000452 s⁻¹ and 14500 M⁻¹ s⁻¹.
The corresponding values for B9 are 5.58 nM, 4.65e-05 s⁻¹ and 8330 M⁻¹ s⁻¹.
For B10, in that order: 334 nM, 0.000695 s⁻¹ and 2100 M⁻¹ s⁻¹.
With B11, the Kd worked out at 23.7 nM, the koff was determined as 0.000418 s⁻¹ and the kon was 17600 M⁻¹ s⁻¹.
For B12, in that order: 18.2 nM, 0.000305 s⁻¹ and 16800 M⁻¹ s⁻¹.

For another experiment the target is unchanged. The experiment is described as follows: BLI, Fab, pH 7.4. The source holds these as a separate data set.
Consider B3, for which binding was put at a Kd of 5.6 nM, the koff is 0.000496 s⁻¹ and the kon turned out to be 88500 M⁻¹ s⁻¹.
The corresponding values for B4 are 36.7 nM, 0.000631 s⁻¹ and 17200 M⁻¹ s⁻¹.
For B5, in that order: 8.37 nM, 0.000303 s⁻¹ and 36200 M⁻¹ s⁻¹.
B6 had a Kd of 102 nM, a koff of 0.00171 s⁻¹ and a kon of 16800 M⁻¹ s⁻¹.
The corresponding values for B7 are 26.1 nM, 0.000376 s⁻¹ and 14400 M⁻¹ s⁻¹.
Molecule B8 gave a Kd of 26 nM, a koff of 0.000422 s⁻¹ and a kon of 16200 M⁻¹ s⁻¹.
For B9, in that order: 9.11 nM, 0.000387 s⁻¹ and 42500 M⁻¹ s⁻¹.
With B13, binding was put at a Kd of 91.2 nM, the koff is 0.00504 s⁻¹ and the kon was found to be 55300 M⁻¹ s⁻¹.
For B10, in that order: 97.1 nM, 0.000404 s⁻¹ and 4200 M⁻¹ s⁻¹.
Turning to B11, the affinity, expressed as Kd, was 27.4 nM; the koff is 0.000632 s⁻¹; the kon was 23100 M⁻¹ s⁻¹.
B12 yielded a Kd of 6.11 nM, a koff of 0.000258 s⁻¹ and a kon of 42200 M⁻¹ s⁻¹.
